Laboratory results reported in the DeepSol protein solubility set.

Assay: soluble on expression in E. coli; label from the status in PepcDB or PDB records

Sequence | soluble on expression in E. coli
EDHEGRHMMAVLPANNKISLSRLNDEFNATFHLVKERMVYRLFTDCEHGAIPPIGSPYHMSTVCDERLANLEHVYLEAGDHETLIKLDRKAFKDLMNDCKYLRFSSEVLH | not soluble
EDRPSKAPSFWYKIDPSHTQGYRTVQLVWKTLPPFEANGKILDYEVTLTRWKSHLQNYTVNATKLTVNLTNDRYLATLTVRNLVGKSDAAVLTIPACDFQATHPVMDLKAFPKDNMLWVEWTTPRESVKKYILEWCVLSDKAPCITDWQQEDGTVHRTYLRGNLAESKCYLITVTPVYADGPGSPESIKAYLKQAPPSKGPTVRTKKVGKNEAVLEWDQLPVDVQNGFIRNYTIFYRTIIGNETAVNVDSSHTEYTLSSLTSDTLYMVRMAAYTDEGGKDGPEFTFTTPK | soluble
EETAKEVMTSRLDMVDLEINTPYSDVLKCIVENAYSRIPVYAESRDNIKGILYIKDLLPHLGKGDNFRWQTLVRPAYFVPETKMIDDLLRDFQANKIHIAIVVDEFGGTSGIVTMEDIIEEIVGEINDEYDD | soluble
EFIGCNDHTVVIEDDGRRWVTREPALVYFNKHTWFNVVAMIRDSGVSYYCNIASPFVLDREALKYVDYDLDVKVFPNGERRLLDMDEFEQFSKKWRYP | not soluble
EGIRQGVLKTAQNGNGNLIYLTGGMATVDHGAFHQGKFLTLKMDDSEVVRALPDVKSVAPTAKWKERITVGDRSSWQEPLAVTSEFQSMTNLVPMAGGRWLNPLDQKETRKVVVLGYELAADLFNPNEDFSWFATVTLQVNPVGKKVKIGNEEFTVVGVLEKNSAQIELGDLINYSSFVPLATWKRFHVNGEIGGINVQPQADVDREALAKTIRQVIARKHGASVNDEQVVQVDDMFLKQKSMQQFLIGLQS | not soluble
EGLNICKKIMVISDKNDAISEFIIKELERGCTIIDGKGGYTGKDTYILYTVLNRKEFIRLRIFIKETDPNAFITISDAKEVLGEGFKEI | not soluble
EGRYIYMNPAHREMFGIATEDEILGRSWRELYSGDVADHIATTALPALLSTGGWRGELIGRRRDGSDLPQEVSLTLKADGGIICISRD | not soluble
EKPAMEYHWEEVFPELDSKNPMDRREMEQRREYLREKAKEAAAYAERPSSVRLASASLGTQPQEQPKPATPFQSQLTGILPEEQIQRLSEGIDKLAEAGEQLARIGRTAAAMTESYEQMQADQEGLRLNSQSYIQQMESLSRNISGLNTIYEIQLKGISSQIDTIDRINRGLAHIRDMYDNSVIDSSSFRNENERMARQLTQLNEVYARLLQALTTNVGLPGMPGNFGASNPSSSGSSPL | not soluble
EKVKNSDYTFEVDFEGPFFPIVEGVNSFGKRMYRVAPQVLRVPLEKPETRVISDIKNGEVLVYVFIQSPEGVVPVSLNLEGKRFRFFNLEGKWICVFKSFLEDGAHELEITFNGPYGYTFSLKKEIYVIKRVAVPMRGEDGAFDYTVFAEHVVKRGETLWSIANQYGVRVGDIVLINRLEDPDRIVAGQVLKIGRVYFRENPVTIVVNLFSSKLALYYDGVLLKVYPVALGRSDATPPGRYWVLRKEIDPALYWFGEYISPRTPLNGLGTRYLQLSDPTYAIHGTSKPWEIGKRISHGCIRMFNRDVEEIDAFAGVGTEVVVVKEDKEFPERIY | not soluble
ELEKSEELYKSLLEDASDAIVVVDENEIVKMVNKMAEEFFGHSSEEVVGLPLSRMLVLVKTHNIPIVYNFFQEVGKGRHVAEEIRFSRVEGEQVVGLIHANTVTIGSERLIQAIIRDVT | not soluble
ELIEPEPRPLIITPSVIELPILRRRDIYMEVANVSIGRAADALARHFDVFVQLPLPNVNIFEVSELHMALRDLASHDNVSGVCQGFCGEGIAGEALVILSDSSVSDLKKLMKVPADSEELEELELLMDISNILVGSFLNGLGEQSEVRFFQSPPVLLGQHISIDSIIESTTGAFKRTMTFEVSYNIEGTSIRCDLLFMFVDESLPLLDNKLAYLMEEF | not soluble
ELSYRLLDQIYINPAVILKREEQYIKDFQSYVTEQKLSMNDRKKIKEFTKTDWTIVMALYQENDIIFSSDSRFIVPLPADEYGETIKDTSEASGVFNVTFTDGAVQAALVYTGYENYQS | soluble
EMEEREIINNVFEFGDMQAKNAMVQRIDMVAIDMEDSYDEIIQVFKTEKLSRMPVYEETIDDIVGILNIKDIIFLSDEEIESFDIKNYMREPFFTYEFKKITQLLEEMKLEKSQMAIVVDEYGGTSGLLTIEDLVEVIVGDIE | soluble
EMEPEEERIRYSQRLRGTMRRRYEDDGISDDEIEGKRTFDLEEKLHTNKYNANFVTFMEGKDFNVEYIQRGGLRDPLIFKNSDGLGIKMPDPDFTVNDVKMCVGSRRMVDVMDVNTQKGIEMTMAQWTRYYETPEEEREKLYNVISLEFSHTRLENMVQRPSTVDFIDWVDNMWPRHLKESQTESTNAILEMQYPKVQKYCLMSVRGCYTDFHVDFGGTSVWYHIHQGGKVFWLIPPTAHNLELYENWLLSGKQGDIFLGDRVSDCQRIELKQGYTFVIPSGWIHAVYTPTDTLVFGGNFLHSFNIPMQLKIYNIEDRTRVPNKFRYPFYYEMCWYVLERYVYCITNRSHLTKEFQKESLSMDLELNGLESGNGDEEAVDREPRRLSSRRSVLTSPVANGVNLDYDGLGKTCRSLPSLKKTLAGDSSSDCSRGSHNGQVWDPQCAPRKDRQVHLTHFELEGLRCLVDKLESLPLHKKCVPTGIEDEDALIADVKILLEELANSDPKLALTGVPIVQWPKRDKLKFPTRPKVRVPTIPITKPHTMKPAPRLTPVRPAAASPIVSGARRRRVRCRKCKACVQGECGVCHYCRDMKKFGGPGRMKQSCVLRQCLAPRLPHSVTCSLCGEVDQNEETQDFEKKLMECCICNEIVHPGCLQMDGEGLLNEELPNCWECPKCYQEDSSEKAQKRKMEESDEEAVQAKVLRPLRSCDEPLTPPPHSPTSMLQLIHDPVSPRGMVTRSSPGAGPSDHHSASRDERFKRRQLLRLQATERTMVREKENNPSGKKELSEVEKAKIRGSYLTVTLQRPTKELHGTSIVPKLQAITASSANLRHSPRVLVQHCPARTPQRGDEEGLGGEEEEEEEEEEEDDSAEEGGAARLNGRGSWAQDGDESWMQREVWMSVFRYLSRRELCECMRVCKTWYKWCCDKRLWTKIDLSRCKAIVPQALSGIIKRQPVSLDLSWTNISKKQLTWLVNRLPGLKDLLLAGCSWSAVSALSTSSCPLLRTLDLRWAVGIKDPQIRDLLTPPADKPGQDNRSKLRNMTDFRLAGLDITDATLRLIIRHMPLLSRLDLSHCSHLTDQSSNLLTAVGSSTRYSLTELNMAGCNKLTDQTLIYLRRIANVTLIDLRGCKQITRKACEHFISDLSINSLYCLSDEKLIQKIS | soluble
ENAIIGVNDHTLVTESDGRRWVTREPAIVYFHKKYWFNIIAMIRDNGTSYYCNMASPYYLDEEALKYIDYDLDVKIFTDGEKRLLDVEEYERHKRKMNYS | not soluble
EPQVRESLGRDVMVVVDLSGSMAEPDFTSRTGEKISRLDAAKEVLTEFVQSRKGDRLGLVLFGDAAFVQTPFTADQKVWLELLNQTDVAMAGQSTHLGDAIGLAIKVFEQSDKSRGALEQDQNREKVAIVLTDGNDTGSFVEPIDAAKVAKAKGVRVHVIAMGDPETIGETALDMDTIHRIAKESGGEAFEALNRDELSAAYDEIGKLEPQLYESTTYRPKQSLHH | not soluble
ESLDEVVVVGMGTQRKVSVVGAVTSVNPAAISAPSTSVANMLGGVVPGIIAVDRSGEPGQDVSEFWIRGISTFGANQSALVLIDGIEGNLNDLDPSDIESFSILKDASATAVYGVRGANGVVLVTTRSGQEGR | not soluble
EYGYEDLRESSNSLLNHQLSEIDQARLYSCLDHMREVLGDAVPDDILTEAILKHKFDVQKALSVVLEQDG | soluble
FCLTLRRRYTMGHHHHHHHHHHSSGHIEGRHMKLEQTLTLSPNLIGFNSNEGEKLLLTSRSREDFFPLSMQFVTQVNQAYCGVASIIMVLNSLGINAPETAQYSPYRVFTQDNFFSNEKTKAVIAPEVVARQGMTLDELGRLIASYGVKVKVNHASDTNIEDFRKQVAENLKQDGNFVIVNYLRKEIGQERGGHISPLAAYNEQTDRFLIMDVSRYKYPPVWVKTTDLWKAMNTVDSVSQKTRGFVFVSKTQDD | soluble
FDVERKAAPAIAESDLRVASFNVLNYFTSVADSGNNNPTGQNRGATNHDEFLIQQAKIVSAMNKMDADIIGLMEVENNGFGDGSAVQNLVDALNAEIDDADDHYTYVEIADKDKYQEEYFGSDAIMVAILYRAKVVTPKEAAKVIFTPEQHIAENTITRKDGAESNPAYDKYQRHSLLQTFTVQESGEDLSIVVNHFKSKGSECIEEWIAGVEDSEPADLQGNCNNFRVSAAHAVGEALKDVKGDVLLMGDLNAYGMEDPLLTLTDYSKEKYGRDIYTAGYTTINGGELQVEQTQIKQGYGLNNLNTLLHGTDTFSYTYSGELGNLDHALASNSLAQKVVAIEDWHINSLESNLFEYGSKYTGDMPKYKDAFSASDHDPVIIAIDLPDTDIDLP | not soluble
FGQYLAIRRTDALLRQQLDTLTIDTLSELEGKLPVKSNSLVIAYIRRVLESKDRPAHVQRLLADFEITADKDLAISKTLTKMGP | not soluble
FLLEIGLEEMPAKYVTSSVLQLEKRVTDWLKDNQIEFKEIKTYSTPRRLTVLVEEMAEEQANRVEEAKGPAKKIALDDEGNWSKAALGFAKSQKVAPEDLTFREIKGVEYIYIKKEVIGEKTTALLPSLEKVVTSMTFPVSMHWGSNDLRYIRPIKWLIAMFGEEIIPFEITGVSTSNTSRGHRFLGKTATINQPSDYPHALLEQFVVVNASERKQAIVEQLRELETMENWQIREDDDLLEEVTNLVEYPTVLAGNFEKEYLELPEEVLITTMKEHQRYFPVFSQEGELLPHFVTVRNGNHENLDTVARGNEKVLRARLSDADFFYQEDLKITIDEAVAKLQNIVFHEKLGTLTEKMERVQKVALMLADYLNWQEEDKQDIIRLTNIYKFDLVTNIVGEFPELQGLMGEKYALLQGEKPAIATAIREHYLPSSAEGVLPQTDLGSLIAIADKLETLIGFFCVNIVPTGSADPFGLRRSAFGAMRIIQANGWDIPMLEVISRIVDMERAEGATELPSADVKKEVQTFLKNRLRVILQGHHIRHDIIDAVIGGDPNV | not soluble
FPELMPLRTQWTTIRDEALALQRIQKIRAAEGHTDAGFNSFFRRGWKRFYLKWYGTTHPSAIALCPKTTALLKNIPAIKAAMFAELPPGGDLRPHRDPFAGSMRLHLGLATPNHTSCFIDVDGQRYSWHDGEWVMFDETYIHYARNDTEHNRIILFCDIERPMRWRWAQALNRFVAKHLLAAGTSPN | not soluble
FSPLSSQSSACCFAYIARPLPRAHIKEYFYTSGKCSNPAVVFVTRKNRQVCANPEKKWVREYINSLEMS | soluble
FTLRLNSTEMPMSDLIEVELLTGKQLLLVEPNMQAASVTQQILSQEGILVTYRSSLPENEEHYDYVLLNLAANQTYDEQSVAAWIEQAKRMAPSVIMGTPSTELALADQIMTEHQIQCLTKPLSRRKLLQS | not soluble
FVSFKHKYKVTSINEIAKDTFEITGTSLKNELKYKAGQFAFIKIPEKKSFFPSHPFTMSNSNKSNEIQFSIKVLGDHTKALKENLKVGDTLSVSGPHGKFNYENGLKHQIWIAGGIGITPFRSFWQAELPSDYTVDLFYTYNNENEGAYINELNSINKNSNLNIHSIDSSKNGFLGLEDLEKHIDKNLEYSVFFCGPKPMREKLRRDFEKVNFKIKDMNYEHFHF | not soluble
GAADHVKGDGKLTSKKISVADYNEIKVDGVIDFNYEQSDDPSTVEVTVDQNLHPYVNIEVKDRVLTIAFKGAKVDHFTKFIVKTNSKWLAAAKVSGNANFMVNSPLTGDETVIKANANSLVQLKETVTVGKLDLNVSGSANMVVNHLEADKIECDIDGSGSITIKKGNAKEGDYSIVSSGDIHAFGLAVPQLSCKVTGNGLAEVHATDNLKANVVGKGNIRYKGPTAVQQRIIGKGTVEEVKE | soluble
